The values that follow come from US20140087995A1 (published 2014).

Numbered stars: 1 amine (or outer) side, 2 acyl side, 3 side chain; on linkers, the order of the positions; unused ones are H or OH. Bridge positions count the residues as written; N and C are the ends. Side chains are listed from the residue outwards. Ends that are not written are not given here. * marks the point of attachment. C20 diacid = O=C(O)CCCCCCCCCCCCCCCCCCC(=O)*; γGlu = O=C(O)[C@H](CCC(=O)[*:2])N[*:1]

In test [1] the target is T1, human calcitonin receptor (human, UniProt P30988 25-474).
T1 construct: whole, on cells; Assay used cell membranes, not intact cells; also called hCTR; hCT
T1 sequence (looked up): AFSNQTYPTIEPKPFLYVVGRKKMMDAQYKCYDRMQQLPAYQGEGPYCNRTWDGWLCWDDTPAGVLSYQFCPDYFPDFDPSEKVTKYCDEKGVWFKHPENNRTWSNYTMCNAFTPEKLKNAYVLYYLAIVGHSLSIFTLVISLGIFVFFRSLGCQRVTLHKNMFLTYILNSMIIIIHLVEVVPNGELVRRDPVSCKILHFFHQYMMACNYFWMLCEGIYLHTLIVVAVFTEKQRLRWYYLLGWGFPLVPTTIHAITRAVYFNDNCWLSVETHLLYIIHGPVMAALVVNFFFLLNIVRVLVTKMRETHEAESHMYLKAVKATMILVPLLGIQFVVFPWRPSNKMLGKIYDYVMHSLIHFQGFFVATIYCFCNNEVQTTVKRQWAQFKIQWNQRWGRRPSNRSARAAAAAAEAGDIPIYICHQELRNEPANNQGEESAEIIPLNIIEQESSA
Kind of test: ratio IC50 hCTR / IC50 hAmylin-R (reference: human amylin receptor), SPA competition assays. In short, it runs like this:
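Competition binding by SPA uses membrane preparations (35 ng/μL final) in pH 7.4 Hepes buffer with 1 mM CaCl2 and 5 mM MgCl₂. Incubation lasts 120 min at 25° C, and IC₅₀ comes from one-site fitting.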

Test [2] has as its target T1, human calcitonin receptor. Description: SPA competition with 125I-calcitonin on membranes of BHK cells with human calcitonin receptor (Assay VII). A digest of the protocol: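 BHK hCTR membranes 35 ng/μL + SPA beads 0.05 mg/well; buffer 50 mM Hepes pH 7.4, 1 mM CaCl2, 5 mM MgCl₂, 0.1% OA, 0.02% Tween20. 120 min, 25° C., shaking. Scintillation count; IC50 by one-site binding competition.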

For test [3], the target named is T2, human amylin receptor (amylin 3(a) receptor: human calcitonin receptor with RAMP-3) (human, UniProt P30988 25-474; O60896 24-148).
T2 construct: whole, on cells; Assay used cell membranes of the Amylin 3(a)/CRE-luc BHK cells, not intact cells; also called hAmylin-R; hAmylinR
T2 sequence (looked up) 1: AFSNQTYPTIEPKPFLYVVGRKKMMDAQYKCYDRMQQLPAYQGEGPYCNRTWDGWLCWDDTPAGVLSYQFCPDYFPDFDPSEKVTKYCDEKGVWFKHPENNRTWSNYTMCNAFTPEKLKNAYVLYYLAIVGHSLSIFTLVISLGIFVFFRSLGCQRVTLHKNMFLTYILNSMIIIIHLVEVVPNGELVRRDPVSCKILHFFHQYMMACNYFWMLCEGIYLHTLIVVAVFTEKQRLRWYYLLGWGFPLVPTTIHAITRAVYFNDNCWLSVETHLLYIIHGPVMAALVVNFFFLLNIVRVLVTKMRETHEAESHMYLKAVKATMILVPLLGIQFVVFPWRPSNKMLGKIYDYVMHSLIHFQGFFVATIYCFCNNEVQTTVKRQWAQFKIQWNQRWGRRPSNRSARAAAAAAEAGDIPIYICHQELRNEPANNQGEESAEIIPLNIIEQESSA
T2 sequence (looked up) 2: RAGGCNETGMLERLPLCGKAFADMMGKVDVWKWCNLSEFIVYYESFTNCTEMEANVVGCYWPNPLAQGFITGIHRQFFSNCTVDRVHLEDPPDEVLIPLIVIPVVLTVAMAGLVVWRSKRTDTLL
Description: SPA competition with 125I-rat amylin on membranes of BHK cells with human calcitonin receptor and RAMP-3 (Assay V). A digest of the protocol: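 One-site competition analysis of SPA counts yielded IC₅₀ as a measure of affinity. Membranes were at 35 ng/μL final; incubation was 120 min at 25° C, pH 7.4.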

B1: N^ε1-[(4S)-4-carboxy-4-[[(4S)-4-carboxy-4-(19-carboxynonadecanoylamino)butanoyl]amino]butanoyl]-[Glu14,Arg17,Pro21,Pro27,His34,Glu35]-h-amylin (peptide)
peptide: K([γGlu-γGlu-C20 diacid])CNTATCATQRLAEFLRHSSPNFGAIPSSTNVGHETY-NH2
modifications: disulfide 2-7; N-terminus assumed
SMILES: CC[C@H](C)[C@H](NC(=O)[C@H](C)NC(=O)CNC(=O)[C@H](Cc1ccccc1)NC(=O)[C@H](CC(N)=O)NC(=O)[C@@H]1CCCN1C(=O)[C@H](CO)NC(=O)[C@H](CO)NC(=O)[C@H](Cc1c[nH]cn1)NC(=O)[C@H](CCCNC(=N)N)NC(=O)[C@H](CC(C)C)NC(=O)[C@H](Cc1ccccc1)NC(=O)[C@H](CCC(=O)O)NC(=O)[C@H](C)NC(=O)[C@H](CC(C)C)NC(=O)[C@H](CCCNC(=N)N)NC(=O)[C@H](CCC(N)=O)NC(=O)[C@@H](NC(=O)[C@H](C)NC(=O)[C@@H]1CSSC[C@H](NC(=O)[C@@H](N)CCCCNC(=O)CC[C@H](NC(=O)CC[C@H](NC(=O)CCCCCCCCCCCCCCCCCCC(=O)O)C(=O)O)C(=O)O)C(=O)N[C@@H](CC(N)=O)C(=O)N[C@@H]([C@@H](C)O)C(=O)N[C@@H](C)C(=O)N[C@@H]([C@@H](C)O)C(=O)N1)[C@@H](C)O)C(=O)N1CCC[C@H]1C(=O)N[C@@H](CO)C(=O)N[C@@H](CO)C(=O)N[C@H](C(=O)N[C@@H](CC(N)=O)C(=O)N[C@H](C(=O)NCC(=O)N[C@@H](Cc1c[nH]cn1)C(=O)N[C@@H](CCC(=O)O)C(=O)N[C@H](C(=O)N[C@@H](Cc1ccc(O)cc1)C(N)=O)[C@@H](C)O)C(C)C)[C@@H](C)O
One may read the IC50 as the concentration at which inhibition is half-maximal. Regarding B1, in test [1], the “Ratio hCT/hAmylin binding” value turned out to be 29.1. The IC50 in test [2] stood at 15.2 nM; in test [3], 0.525 nM.

With K([γGlu-γGlu-C20 diacid])CNTATCATQRLAEFLRHSSPNFGAIPSSTNVGPHTY-NH2 (disulfide 2-7 (inferred)), in test [1], the “Ratio hCT/hAmylin binding” value was 27.3. Further, the results for the IC50 in test [2] and in test [3] were 10.3 nM and 0.377 nM, respectively.

B2: N^ε1-[(4S)-4-carboxy-4-[[(4S)-4-carboxy-4-(19-carboxynonadecanoylamino)butanoyl]amino]butanoyl]-[Glu14,Arg17,Pro21,Pro27,Pro34,Arg35]-h-amylin (peptide)
peptide: K([γGlu-γGlu-C20 diacid])CNTATCATQRLAEFLRHSSPNFGAIPSSTNVGPRTY-NH2
modifications: disulfide 2-7; N-terminus assumed
SMILES: CC[C@H](C)[C@H](NC(=O)[C@H](C)NC(=O)CNC(=O)[C@H](Cc1ccccc1)NC(=O)[C@H](CC(N)=O)NC(=O)[C@@H]1CCCN1C(=O)[C@H](CO)NC(=O)[C@H](CO)NC(=O)[C@H](Cc1c[nH]cn1)NC(=O)[C@H](CCCNC(=N)N)NC(=O)[C@H](CC(C)C)NC(=O)[C@H](Cc1ccccc1)NC(=O)[C@H](CCC(=O)O)NC(=O)[C@H](C)NC(=O)[C@H](CC(C)C)NC(=O)[C@H](CCCNC(=N)N)NC(=O)[C@H](CCC(N)=O)NC(=O)[C@@H](NC(=O)[C@H](C)NC(=O)[C@@H]1CSSC[C@H](NC(=O)[C@@H](N)CCCCNC(=O)CC[C@H](NC(=O)CC[C@H](NC(=O)CCCCCCCCCCCCCCCCCCC(=O)O)C(=O)O)C(=O)O)C(=O)N[C@@H](CC(N)=O)C(=O)N[C@@H]([C@@H](C)O)C(=O)N[C@@H](C)C(=O)N[C@@H]([C@@H](C)O)C(=O)N1)[C@@H](C)O)C(=O)N1CCC[C@H]1C(=O)N[C@@H](CO)C(=O)N[C@@H](CO)C(=O)N[C@H](C(=O)N[C@@H](CC(N)=O)C(=O)N[C@H](C(=O)NCC(=O)N1CCC[C@H]1C(=O)N[C@@H](CCCNC(=N)N)C(=O)N[C@H](C(=O)N[C@@H](Cc1ccc(O)cc1)C(N)=O)[C@@H](C)O)C(C)C)[C@@H](C)O
notes: also called compound 110
On to B2, for which the “Ratio hCT/hAmylin binding” value in test [1] was 53.6. Moreover, the results for the IC50 in test [2] and in test [3] were 17.5 nM and 0.326 nM, respectively.

Take K([γGlu-γGlu-C20 diacid])CNTATCATQRLAEFLRHSSPNFGAILSSTPVGPETY-NH2 (disulfide 2-7 (inferred)): the “Ratio hCT/hAmylin binding” value in test [1] turned out to be 22.6. The half-inhibitory concentration (IC50) is 1.56 nM in test [2] and 0.069 nM in test [3].

B3: N^ε1-[(4S)-4-carboxy-4-[[(4S)-4-carboxy-4-(19-carboxynonadecanoylamino)butanoyl]amino]butanoyl]-[His14,Arg17,Pro21,Pro27]-h-amylin (peptide)
peptide: K([γGlu-γGlu-C20 diacid])CNTATCATQRLAHFLRHSSPNFGAIPSSTNVGSNTY-NH2
modifications: disulfide 2-7; N-terminus assumed
SMILES: CC[C@H](C)[C@H](NC(=O)[C@H](C)NC(=O)CNC(=O)[C@H](Cc1ccccc1)NC(=O)[C@H](CC(N)=O)NC(=O)[C@@H]1CCCN1C(=O)[C@H](CO)NC(=O)[C@H](CO)NC(=O)[C@H](Cc1c[nH]cn1)NC(=O)[C@H](CCCNC(=N)N)NC(=O)[C@H](CC(C)C)NC(=O)[C@H](Cc1ccccc1)NC(=O)[C@H](Cc1c[nH]cn1)NC(=O)[C@H](C)NC(=O)[C@H](CC(C)C)NC(=O)[C@H](CCCNC(=N)N)NC(=O)[C@H](CCC(N)=O)NC(=O)[C@@H](NC(=O)[C@H](C)NC(=O)[C@@H]1CSSC[C@H](NC(=O)[C@@H](N)CCCCNC(=O)CC[C@H](NC(=O)CC[C@H](NC(=O)CCCCCCCCCCCCCCCCCCC(=O)O)C(=O)O)C(=O)O)C(=O)N[C@@H](CC(N)=O)C(=O)N[C@@H]([C@@H](C)O)C(=O)N[C@@H](C)C(=O)N[C@@H]([C@@H](C)O)C(=O)N1)[C@@H](C)O)C(=O)N1CCC[C@H]1C(=O)N[C@@H](CO)C(=O)N[C@@H](CO)C(=O)N[C@H](C(=O)N[C@@H](CC(N)=O)C(=O)N[C@H](C(=O)NCC(=O)N[C@@H](CO)C(=O)N[C@@H](CC(N)=O)C(=O)N[C@H](C(=O)N[C@@H](Cc1ccc(O)cc1)C(N)=O)[C@@H](C)O)C(C)C)[C@@H](C)O
notes: also called compound 92
As for B3, the “Ratio hCT/hAmylin binding” value in test [1] came out at 145. Moreover, the IC50 in test [2] worked out at 26 nM; in test [3], 0.179 nM.

B4: N^ε1-[(4S)-4-carboxy-4-[[(4S)-4-carboxy-4-(19-carboxynonadecanoylamino)butanoyl]amino]butanoyl]-[Glu14,Arg17,Pro21,Pro27,His34]-h-amylin (peptide)
peptide: K([γGlu-γGlu-C20 diacid])CNTATCATQRLAEFLRHSSPNFGAIPSSTNVGHNTY-NH2
modifications: disulfide 2-7; N-terminus assumed
SMILES: CC[C@H](C)[C@H](NC(=O)[C@H](C)NC(=O)CNC(=O)[C@H](Cc1ccccc1)NC(=O)[C@H](CC(N)=O)NC(=O)[C@@H]1CCCN1C(=O)[C@H](CO)NC(=O)[C@H](CO)NC(=O)[C@H](Cc1c[nH]cn1)NC(=O)[C@H](CCCNC(=N)N)NC(=O)[C@H](CC(C)C)NC(=O)[C@H](Cc1ccccc1)NC(=O)[C@H](CCC(=O)O)NC(=O)[C@H](C)NC(=O)[C@H](CC(C)C)NC(=O)[C@H](CCCNC(=N)N)NC(=O)[C@H](CCC(N)=O)NC(=O)[C@@H](NC(=O)[C@H](C)NC(=O)[C@@H]1CSSC[C@H](NC(=O)[C@@H](N)CCCCNC(=O)CC[C@H](NC(=O)CC[C@H](NC(=O)CCCCCCCCCCCCCCCCCCC(=O)O)C(=O)O)C(=O)O)C(=O)N[C@@H](CC(N)=O)C(=O)N[C@@H]([C@@H](C)O)C(=O)N[C@@H](C)C(=O)N[C@@H]([C@@H](C)O)C(=O)N1)[C@@H](C)O)C(=O)N1CCC[C@H]1C(=O)N[C@@H](CO)C(=O)N[C@@H](CO)C(=O)N[C@H](C(=O)N[C@@H](CC(N)=O)C(=O)N[C@H](C(=O)NCC(=O)N[C@@H](Cc1c[nH]cn1)C(=O)N[C@@H](CC(N)=O)C(=O)N[C@H](C(=O)N[C@@H](Cc1ccc(O)cc1)C(N)=O)[C@@H](C)O)C(C)C)[C@@H](C)O
notes: also called compound 87
Take B4: the “Ratio hCT/hAmylin binding” value in test [1] came to 35.6. The IC50 is 22.5 nM in test [2] and 0.633 nM in test [3].
